The target of this assay is MIS type II receptor (MISRII) (human) (UniProt Q16671). The assay is described as follows: cell-based or functional assay.
Chain of UniProt Q16671 (Q16671 18-573): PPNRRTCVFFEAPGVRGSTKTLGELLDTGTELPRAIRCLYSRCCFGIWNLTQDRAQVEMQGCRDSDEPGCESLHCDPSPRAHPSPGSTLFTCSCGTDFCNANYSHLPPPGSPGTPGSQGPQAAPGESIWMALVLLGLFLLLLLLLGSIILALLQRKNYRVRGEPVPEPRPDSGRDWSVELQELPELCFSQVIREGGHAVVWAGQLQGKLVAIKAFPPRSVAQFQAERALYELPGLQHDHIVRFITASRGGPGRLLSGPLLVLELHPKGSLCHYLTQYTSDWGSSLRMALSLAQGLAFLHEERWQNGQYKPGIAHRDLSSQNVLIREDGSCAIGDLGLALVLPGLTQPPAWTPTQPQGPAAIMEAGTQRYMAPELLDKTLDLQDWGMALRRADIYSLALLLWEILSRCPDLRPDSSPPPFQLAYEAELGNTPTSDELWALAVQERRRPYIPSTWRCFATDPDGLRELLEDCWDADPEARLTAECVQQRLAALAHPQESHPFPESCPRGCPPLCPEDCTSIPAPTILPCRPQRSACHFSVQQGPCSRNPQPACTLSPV

In turn, “MIS over-expressed from an MIS protein expression construct (ligand)” came in with a decrease in cell proliferation (cultured endometrial cells transiently transfected with an MIS protein expression construct) of 8%.
On to “rhMIS (R&D Systems, Minneapolis, Minn.) (from UniProt P03971 452-560) (ligand)”, for which the decrease in viable cells (cultured endometrial cells, rhMIS 100 ng/mL, 72 hours) came to 14%.
